{"source": "patent US20250197451A1", "about": "(CAPITAL MEDICAL UNIVERSITY SCHOOL OF STOMATOLOGY, published 2025);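 note: 100% is the highest background-corrected spot optical density on the membrane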", "binders": {"B1": {"name": "peptide 95 (peptide)", "peptide": "RTLSNESEESVKSTT"}, "B2": {"name": "peptide 94 (peptide)", "peptide": "LRFLKRTLSNESEES"}, "B3": {"name": "peptide 97 (peptide)", "peptide": "VKSTTLAVDYPKTPT"}, "B4": {"name": "peptide 219 (peptide)", "peptide": "TWNRWCCDKRLWTRI"}, "B5": {"name": "peptide 14 (peptide)", "peptide": "RGFSLEEKLRSQLYQ"}, "B6": {"name": "peptide 155 (peptide)", "peptide": "EEAPRRRSDEHSKKV"}, "B7": {"name": "peptide 165 (peptide)", "peptide": "LQTSPGSSSHLSPRP"}, "B8": {"name": "peptide 205 (peptide)", "peptide": "RVISRPPPSVSPPKC"}, "B9": {"name": "peptide 209 (peptide)", "peptide": "HVIRPPPISPPPDSL"}, "B10": {"name": "peptide 2 (peptide)", "peptide": "MGGSAEDHPPRKRHA"}, "B11": {"name": "peptide 146 (peptide)", "peptide": "GKTGKQKRGPGFKYA"}, "B12": {"name": "peptide 127 (peptide)", "peptide": "KDMKKFGGPGRMKQS"}, "B13": {"name": "peptide 201 (peptide)", "peptide": "LNGTPRELRHQLGPS"}, "B14": {"name": "peptide 210 (peptide)", "peptide": "PPISPPPDSLPLDDG"}, "B15": {"name": "peptide 13 (peptide)", "peptide": "EIVSVRGFSLEEKLR"}, "B16": {"name": "peptide 181 (peptide)", "peptide": "PPKTRESDHSRSSSP"}, "B17": {"name": "peptide 184 (peptide)", "peptide": "TAGPSTEGAEGPEEK"}, "B18": {"name": "peptide 163 (peptide)", "peptide": "ELSGRKRASSLQTSP"}, "B19": {"name": "peptide 18 (peptide)", "peptide": "AMEGKDFNYEYVQRE"}, "B20": {"name": "peptide 164 (peptide)", "peptide": "KRASSLQTSPGSSSH"}, "B21": {"name": "peptide 183 (peptide)", "peptide": "RSSSPTAGPSTEGAE"}, "B22": {"name": "peptide 145 (peptide)", "peptide": "KCNHAGKTGKQKRGP"}, "B23": {"name": "peptide 202 (peptide)", "peptide": "RELRHQLGPSLRSPP"}, "B24": {"name": "peptide 198 (peptide)", "peptide": "RPPGICERPHRFSKG"}, "B25": {"name": "peptide 208 (peptide)", "peptide": "IQMERHVIRPPPISP"}, "B26": {"name": "peptide 182 (peptide)", "peptide": "ESDHSRSSSPTAGPS"}}}
{"target": "T1, biotin-labelled EZH2 protein (UniProt Q15910 1-746, limits assumed, biotin label (EZ-link NHS-PEO4-Biotinylation kit))", "T1 construct": "Probe in solution (1 ug/ml) on the KDM2B peptide microarray; also called NHS-PEO4-Biotinylation-labelled EZH2 protein; recombinant protein", "T1 sequence (Q15910 whole entry)": "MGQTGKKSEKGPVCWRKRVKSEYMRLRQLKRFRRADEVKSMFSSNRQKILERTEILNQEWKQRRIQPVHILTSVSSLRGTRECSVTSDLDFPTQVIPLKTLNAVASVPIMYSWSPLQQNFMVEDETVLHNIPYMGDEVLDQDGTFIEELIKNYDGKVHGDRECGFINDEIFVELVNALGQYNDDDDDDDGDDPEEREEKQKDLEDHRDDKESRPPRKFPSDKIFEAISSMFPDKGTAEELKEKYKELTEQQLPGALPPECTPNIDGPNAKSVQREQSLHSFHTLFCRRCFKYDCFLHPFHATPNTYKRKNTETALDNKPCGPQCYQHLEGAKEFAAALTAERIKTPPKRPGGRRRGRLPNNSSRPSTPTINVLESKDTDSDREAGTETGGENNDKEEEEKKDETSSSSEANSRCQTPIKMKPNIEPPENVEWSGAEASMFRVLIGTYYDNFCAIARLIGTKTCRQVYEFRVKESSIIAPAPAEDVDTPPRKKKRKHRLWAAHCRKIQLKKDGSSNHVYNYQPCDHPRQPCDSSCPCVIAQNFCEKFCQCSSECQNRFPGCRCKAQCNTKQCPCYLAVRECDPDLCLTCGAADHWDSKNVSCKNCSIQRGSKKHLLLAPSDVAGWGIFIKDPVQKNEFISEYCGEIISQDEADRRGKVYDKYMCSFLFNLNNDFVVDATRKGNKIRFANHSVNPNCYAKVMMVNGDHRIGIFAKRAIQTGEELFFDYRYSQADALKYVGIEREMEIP", "experiment": "KDM2B peptide array probed with biotin-EZH2 1 ug/ml, SA-HRP/ECL;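 note: Background-corrected optical density of each spot on the membrane, given as percent of the brightest spot (100%), color developed for 5 minutes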", "units": {"Intensity (%)": "%"}, "protocol": "After blocking, the polypeptide microarray was incubated with biotin-labeled target protein for hybridization, visualized with the chemical chromogenic substrate and imaged using a Chempchemi digital imager. The image of colored polypeptide microarray was analyzed for the optical density of the colored points. Particularly, the optical density of each colored point was calculated using the optical density of the respective surrounding background as a reference for background correction. The highest optical density value of the colored point on membrane was set to 100%, and the optical density value of the remaining colored points was converted into percentages relative to the highest value. The points with an optical density percentage of more than 30% on the polypeptide membrane and also with an optical density percentage of less than 30% on the negative membrane were defined as positive colored points.\nFor the hybridization experiment, a solution of NHS-PEO4-Biotinylation-labelled EZH2 protein (1 μg/ml) was used for the hybridization of the polypeptide microarray. Streptavidin-HRP was used to amplify the reaction signal according to the experimental procedure and conditions described above, and the time of color development was 5 minutes."}
{"binder": "B1", "Intensity (%)": 0}
{"binder": "B2", "Intensity (%)": 0}
{"binder": "B3", "Intensity (%)": 0}
{"target": "T1, biotin-labelled EZH2 protein", "experiment": "KDM2B peptide array probed with biotin-EZH2 1 ug/ml, SA-HRP/ECL; Remark: noise", "units": {"Intensity (%)": "%"}};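 note: Background-corrected optical density of each spot on the membrane, given as percent of the brightest spot (100%), color developed for 5 minutes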
{"binder": "B4", "Intensity (%)": 0.56}
{"binder": "B5", "Intensity (%)": 0.07}
{"binder": "B6", "Intensity (%)": 0}
{"binder": "B7", "Intensity (%)": 0}
{"binder": "B8", "Intensity (%)": 0.39}
{"binder": "B9", "Intensity (%)": 0.32}
{"binder": "B10", "Intensity (%)": 0}
{"binder": "B11", "Intensity (%)": 0.01}
{"binder": "B12", "Intensity (%)": 0}
{"binder": "B13", "Intensity (%)": 0.18}
{"binder": "B14", "Intensity (%)": 0}
{"binder": "B15", "Intensity (%)": 0.05}
{"binder": "B16", "Intensity (%)": 0.3}
{"binder": "B17", "Intensity (%)": 0}
{"binder": "B18", "Intensity (%)": 0}
{"binder": "B19", "Intensity (%)": 0}
{"binder": "B20", "Intensity (%)": 0.34}
{"binder": "B21", "Intensity (%)": 0}
{"binder": "B22", "Intensity (%)": 0}
{"binder": "B23", "Intensity (%)": 0.64}
{"binder": "B24", "Intensity (%)": 0}
{"binder": "B25", "Intensity (%)": 0}
{"binder": "B26", "Intensity (%)": 0.36}
